According to patent US20240279325A1 (Chugai, published 2024):

Experiments:
[1] = target: T1, FcγRIIb extracellular domain with C-terminal His tag (human, UniProt P31994 43-217); experiment: SPR; KD for FcγRIIaH divided by KD for FcγRIIb
T1 construct: extracellular domain
T1 sequence (looked up): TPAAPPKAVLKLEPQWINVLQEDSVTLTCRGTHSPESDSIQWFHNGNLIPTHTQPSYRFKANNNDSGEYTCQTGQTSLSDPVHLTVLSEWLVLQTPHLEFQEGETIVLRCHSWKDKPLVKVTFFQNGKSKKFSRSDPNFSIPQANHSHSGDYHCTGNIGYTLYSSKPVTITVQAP

[2] = target: T1, FcγRIIb extracellular domain with …; experiment: SPR; KD for FcγRIIaR divided by KD for FcγRIIb
[3] = target: T2, FcγRIIa type R (allotype R131) extracellular domain with C-terminal His tag (human, UniProt P12318 34-217); experiment: SPR; KD of IL6R-B3/IL6R-L divided by KD of the variant
T2 construct: extracellular domain; also called FcγRIIaR; FcγRIIa R type
T2 sequence (looked up): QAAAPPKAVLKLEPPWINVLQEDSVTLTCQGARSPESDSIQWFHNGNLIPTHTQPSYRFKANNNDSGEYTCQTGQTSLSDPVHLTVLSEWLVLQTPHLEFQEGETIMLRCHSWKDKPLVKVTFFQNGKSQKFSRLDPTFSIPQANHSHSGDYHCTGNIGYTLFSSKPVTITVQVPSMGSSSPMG

[4] = target: T1, FcγRIIb extracellular domain with …; experiment: as above

Row | Binder | KD(IIaH)/KD(IIb) [1] | KD(IIaR)/KD(IIb) [2] | KD(IIaR) OF PARENT POLYPEPTIDE/KD(IIaR) OF ALTERED POLYPEPTIDE [3] | KD(IIb) OF PARENT POLYPEPTIDE/KD(IIb) OF ALTERED POLYPEPTIDE [4]
1 | IL6R-BP481/IL6R-L (antibody, human IgG1, kappa, name in EU numbering, copies: 2 + 2) heavy: QVQLQESGPGLVKPSETLSLTCAVSGHSISHDHAWSWVRQPPGEGLEWIGFISYSGITNYNPSLQGRVTISRDNSKNTLYLQMNSLRAEDTAVYYCARSLARTTAMDYWGEGTLVTVSSASTKGPSVFPLAPSSKSTSGGTAALGCLVKDYFPEPVTVSWNSGALTSGVHTFPAVLQSSGLYSLSSVVTVPSSSLGTQTYICNVNHKPSNTKVDKKVEPKSCDKTHTCPPCPAPDLLGDDSVFLFPPKPKDTLMISRTPEVTCVVIDVAEEDGEVKFNWYVDGVEVHNAKTKPREEQYNSTYRVVSVLTVLHQDWLNGKEYKCKVSNKALPAPIEKTISKAKGQPREPQVYTLPPSRDELTKNQVSLTCLVKGFYPSDIAVEWESNGQPENNYKTTPPVLDSDGSFFLYSKLTVDKSRWQQGNVFSCSVMHEALHNHYTQESLSLSP light: not shown | 350 | 20.5 | 2.8 | 160
2 | IL6R-BP491/IL6R-L (antibody, human IgG1, kappa, name in EU numbering, also called IL6R-491/IL6R-L; copies: 2 + 2) heavy: QVQLQESGPGLVKPSETLSLTCAVSGHSISHDHAWSWVRQPPGEGLEWIGFISYSGITNYNPSLQGRVTISRDNSKNTLYLQMNSLRAEDTAVYYCARSLARTTAMDYWGEGTLVTVSSASTKGPSVFPLAPSSKSTSGGTAALGCLVKDYFPEPVTVSWNSGALTSGVHTFPAVLQSSGLYSLSSVVTVPSSSLGTQTYICNVNHKPSNTKVDKKVEPKSCDKTHTCPPCPAPELLGDDSVFLFPPKPKDTLMISRTPEVTCVVIDVAEEDGEVKFNWYVDGVEVHNAKTKPREEQDNSTYRVVSVLTVLHQDWLNGKEYKCKVSNKALPRPIEKTISKAKGQPREPQVYTLPPSRDELTKNQVSLTCLVKGFYPSDIAVEWESNGQPENNYKTTPPVLDSDGSFFLYSKLTVDKSRWQQGNVFSCSVMHEALHNHYTQESLSLSP light: not shown | 724 | 38.8 | 9.3 | 1020
3 | IL6R-BP484/IL6R-L (antibody, human IgG1, kappa, name in EU numbering, copies: 2 + 2) heavy: QVQLQESGPGLVKPSETLSLTCAVSGHSISHDHAWSWVRQPPGEGLEWIGFISYSGITNYNPSLQGRVTISRDNSKNTLYLQMNSLRAEDTAVYYCARSLARTTAMDYWGEGTLVTVSSASTKGPSVFPLAPSSKSTSGGTAALGCLVKDYFPEPVTVSWNSGALTSGVHTFPAVLQSSGLYSLSSVVTVPSSSLGTQTYICNVNHKPSNTKVDKKVEPKSCDKTHTCPPCPAPDLLGDDSVFLFPPKPKDTLMISRTPEVTCVVVDVAEDDGEVKFNWYVDGVEVHNAKTKPREEQYNSTYRVVSVLTVLHQDWLNGKEYKCKVSNKALPAPIEKTISKAKGQPREPQVYTLPPSRDELTKNQVSLTCLVKGFYPSDIAVEWESNGQPENNYKTTPPVLDSDGSFFLYSKLTVDKSRWQQGNVFSCSVMHEALHNHYTQESLSLSP light: not shown | 241 | 17.1 | 1.4 | 67.3
4 | IL6R-BP492/IL6R-L (antibody, human IgG1, kappa, name in EU numbering, copies: 2 + 2) heavy: QVQLQESGPGLVKPSETLSLTCAVSGHSISHDHAWSWVRQPPGEGLEWIGFISYSGITNYNPSLQGRVTISRDNSKNTLYLQMNSLRAEDTAVYYCARSLARTTAMDYWGEGTLVTVSSASTKGPSVFPLAPSSKSTSGGTAALGCLVKDYFPEPVTVSWNSGALTSGVHTFPAVLQSSGLYSLSSVVTVPSSSLGTQTYICNVNHKPSNTKVDKKVEPKSCDKTHTCPPCPAPELLGGDSVFLFPPKPKDTLMISRTPEVTCVVIDVAEEDGEVKFNWYVDGVEVHNAKTKPREEQYNSTYRVVSVLTVLHQDWLNGKEYKCKVSNKALPAPIEKTISKAKGQPREPQVYTLPPSRDELTKNQVSLTCLVKGFYPSDIAVEWESNGQPENNYKTTPPVLDSDGSFFLYSKLTVDKSRWQQGNVFSCSVMHEALHNHYTQESLSLSP light: not shown | 678 | 38.8 | 1.2 | 131

Further lines, results first:

Row | KD(IIaH)/KD(IIb) [1] | KD(IIaR)/KD(IIb) [2] | KD(IIaR) OF PARENT POLYPEPTIDE/KD(IIaR) OF ALTERED POLYPEPTIDE [3] | KD(IIb) OF PARENT POLYPEPTIDE/KD(IIb) OF ALTERED POLYPEPTIDE [4] | Binder
5 | 375 | 17 | 0.5 | 25.8 | IL6R-BP262/IL6R-L (antibody, human IgG1, kappa, name in EU numbering, copies: 2 + 2) heavy: QVQLQESGPGLVKPSETLSLTCAVSGHSISHDHAWSWVRQPPGEGLEWIGFISYSGITNYNPSLQGRVTISRDNSKNTLYLQMNSLRAEDTAVYYCARSLARTTAMDYWGEGTLVTVSSASTKGPSVFPLAPSSKSTSGGTAALGCLVKDYFPEPVTVSWNSGALTSGVHTFPAVLQSSGLYSLSSVVTVPSSSLGTQTYICNVNHKPSNTKVDKKVEPKSCDKTHTCPPCPAPELLGDDSVFLFPPKPKDTLMISRTPEVTCVVVDVSEEDGEVKFNWYVDGVEVHNAKTKPREEQYNSTYRVVSVLTVLHQDWLNGKEYKCKVSNKALPAPIEKTISKAKGQPREPQVYTLPPSRDELTKNQVSLTCLVKGFYPSDIAVEWESNGQPENNYKTTPPVLDSDGSFFLYSKLTVDKSRWQQGNVFSCSVMHEALHNHYTQESLSLSP light: not shown
6 | 870 | 42.8 | 25.7 | 3100 | IL6R-BP489/IL6R-L (antibody, human IgG1, kappa, name in EU numbering, copies: 2 + 2) heavy: QVQLQESGPGLVKPSETLSLTCAVSGHSISHDHAWSWVRQPPGEGLEWIGFISYSGITNYNPSLQGRVTISRDNSKNTLYLQMNSLRAEDTAVYYCARSLARTTAMDYWGEGTLVTVSSASTKGPSVFPLAPSSKSTSGGTAALGCLVKDYFPEPVTVSWNSGALTSGVHTFPAVLQSSGLYSLSSVVTVPSSSLGTQTYICNVNHKPSNTKVDKKVEPKSCDKTHTCPPCPAPDLLGDDSVFLFPPKPKDTLMISRTPEVTCVVIDVAEEDGEVKFNWYVDGVEVHNAKTKPREEQDNSTYRVVSVLTVLHQDWLNGKEYKCKVSNKALPRPIEKTISKAKGQPREPQVYTLPPSRDELTKNQVSLTCLVKGFYPSDIAVEWESNGQPENNYKTTPMVLDSDGSFFLYSKLTVDKSRWQQGNVFSCSVMHEALHNHYTQESLSLSP light: not shown
7 | 730 | 33.8 | 28.3 | 2700 | IL6R-BP487/IL6R-L (antibody, human IgG1, kappa, name in EU numbering, copies: 2 + 2) heavy: QVQLQESGPGLVKPSETLSLTCAVSGHSISHDHAWSWVRQPPGEGLEWIGFISYSGITNYNPSLQGRVTISRDNSKNTLYLQMNSLRAEDTAVYYCARSLARTTAMDYWGEGTLVTVSSASTKGPSVFPLAPSSKSTSGGTAALGCLVKDYFPEPVTVSWNSGALTSGVHTFPAVLQSSGLYSLSSVVTVPSSSLGTQTYICNVNHKPSNTKVDKKVEPKSCDKTHTCPPCPAPDLLGDDSVFLFPPKPKDTLMISRTPEVTCVVIDVAEEDGEVKFNWYVDGVEVHNAKTKPREEQYNSTYRVVSVLTVLHQDWLNGKEYKCKVSNKALPRPIEKTISKAKGQPREPQVYTLPPSRDELTKNQVSLTCLVKGFYPSDIAVEWESNGQPENNYKTTPMVLDSDGSFFLYSKLTVDKSRWQQGNVFSCSVMHEALHNHYTQESLSLSP light: not shown
8 | 268 | 16.1 | 1.2 | 55.5 | IL6R-BP479/IL6R-L (antibody, human IgG1, kappa, name in EU numbering, copies: 2 + 2) heavy: QVQLQESGPGLVKPSETLSLTCAVSGHSISHDHAWSWVRQPPGEGLEWIGFISYSGITNYNPSLQGRVTISRDNSKNTLYLQMNSLRAEDTAVYYCARSLARTTAMDYWGEGTLVTVSSASTKGPSVFPLAPSSKSTSGGTAALGCLVKDYFPEPVTVSWNSGALTSGVHTFPAVLQSSGLYSLSSVVTVPSSSLGTQTYICNVNHKPSNTKVDKKVEPKSCDKTHTCPPCPAPDLLGDDSVFLFPPKPKDTLMISRTPEVTCVVIDLAEEDGEVKFNWYVDGVEVHNAKTKPREEQYNSTYRVVSVLTVLHQDWLNGKEYKCKVSNKALPAPIEKTISKAKGQPREPQVYTLPPSRDELTKNQVSLTCLVKGFYPSDIAVEWESNGQPENNYKTTPPVLDSDGSFFLYSKLTVDKSRWQQGNVFSCSVMHEALHNHYTQESLSLSP light: not shown
9 | 637 | 19.6 | 0.5 | 27.4 | IL6R-BP269/IL6R-L (antibody, human IgG1, kappa, name in EU numbering, copies: 2 + 2) heavy: QVQLQESGPGLVKPSETLSLTCAVSGHSISHDHAWSWVRQPPGEGLEWIGFISYSGITNYNPSLQGRVTISRDNSKNTLYLQMNSLRAEDTAVYYCARSLARTTAMDYWGEGTLVTVSSASTKGPSVFPLAPSSKSTSGGTAALGCLVKDYFPEPVTVSWNSGALTSGVHTFPAVLQSSGLYSLSSVVTVPSSSLGTQTYICNVNHKPSNTKVDKKVEPKSCDKTHTCPPCPAPELLGDDSVFLFPPKPKDTLMISRTPEVTCVVVDVSEEDGEVKFNWYVDGVEVHNAKTKPREEQDNSTYRVVSVLTVLHQDWLNGKEYKCKVSNKALPAPIEKTISKAKGQPREPQVYTLPPSRDELTKNQVSLTCLVKGFYPSDIAVEWESNGQPENNYKTTPPVLDSDGSFFLYSKLTVDKSRWQQGNVFSCSVMHEALHNHYTQESLSLSP light: not shown
